Reference: patent publication US20140087995A1 (published 2014)
Numbered stars: 1 amine (or outer) side, 2 acyl side, 3 side chain; on linkers, the order of the positions; unused ones are H or OH. Bridge positions count the residues as written; N and C are the ends. Side chains are listed from the residue outwards. Ends that are not written are not given here. * marks the point of attachment. C20 diacid = O=C(O)CCCCCCCCCCCCCCCCCCC(=O)*; γGlu = O=C(O)[C@H](CCC(=O)[*:2])N[*:1]; AEEA = NCCOCCOCC(=O)O

T1: rat calcitonin receptor (rat, UniProt P32214 25-516)
T1 construct: whole, on cells; Used as membranes prepared from the transfected cells (Assay VIII); also called rCTR; rat calcitonin (a) receptor
T1 sequence (looked up): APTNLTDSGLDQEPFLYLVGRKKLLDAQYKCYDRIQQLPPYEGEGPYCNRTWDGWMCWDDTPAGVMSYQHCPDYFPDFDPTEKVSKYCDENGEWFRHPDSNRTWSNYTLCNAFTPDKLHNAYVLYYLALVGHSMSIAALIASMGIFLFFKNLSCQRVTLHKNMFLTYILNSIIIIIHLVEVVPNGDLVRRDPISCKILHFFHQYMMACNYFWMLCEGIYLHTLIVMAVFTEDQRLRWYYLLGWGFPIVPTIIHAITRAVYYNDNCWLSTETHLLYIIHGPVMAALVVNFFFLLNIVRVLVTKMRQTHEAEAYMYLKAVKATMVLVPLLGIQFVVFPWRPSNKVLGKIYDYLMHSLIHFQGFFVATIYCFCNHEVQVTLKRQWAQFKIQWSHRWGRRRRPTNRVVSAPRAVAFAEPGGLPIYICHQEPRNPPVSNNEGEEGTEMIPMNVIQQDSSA

T2: human amylin 3(a) receptor (human calcitonin receptor co-expressed with RAMP-3) (human, UniProt P30988 25-474; O60896 24-148, limits assumed)
T2 sequence (looked up) 1: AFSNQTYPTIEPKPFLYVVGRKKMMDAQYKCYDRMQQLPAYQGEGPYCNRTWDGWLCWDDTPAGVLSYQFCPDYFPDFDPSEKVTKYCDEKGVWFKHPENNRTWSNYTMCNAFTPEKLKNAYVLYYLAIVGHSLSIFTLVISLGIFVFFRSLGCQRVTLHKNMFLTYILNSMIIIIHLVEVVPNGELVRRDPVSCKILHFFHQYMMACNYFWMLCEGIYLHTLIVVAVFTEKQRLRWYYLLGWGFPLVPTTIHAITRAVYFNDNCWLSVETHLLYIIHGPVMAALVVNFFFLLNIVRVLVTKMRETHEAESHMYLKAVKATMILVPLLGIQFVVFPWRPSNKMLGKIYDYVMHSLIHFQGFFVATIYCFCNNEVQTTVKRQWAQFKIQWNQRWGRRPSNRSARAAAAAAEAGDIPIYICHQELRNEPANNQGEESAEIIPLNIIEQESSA
T2 sequence (looked up) 2: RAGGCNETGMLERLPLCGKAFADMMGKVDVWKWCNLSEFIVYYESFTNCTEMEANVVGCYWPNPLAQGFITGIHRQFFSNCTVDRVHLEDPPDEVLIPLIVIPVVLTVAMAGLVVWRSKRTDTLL

T3: rat amylin receptor (rat calcitonin receptor + rat RAMP 3) (rat, UniProt P32214 25-516; Q9JJ73 23-147)
T3 construct: whole, on cells; Used as membranes prepared from the transfected cells (Assay VI); also called rAmylin-R; rat amylin 3(a) receptor
T3 sequence (looked up) 1: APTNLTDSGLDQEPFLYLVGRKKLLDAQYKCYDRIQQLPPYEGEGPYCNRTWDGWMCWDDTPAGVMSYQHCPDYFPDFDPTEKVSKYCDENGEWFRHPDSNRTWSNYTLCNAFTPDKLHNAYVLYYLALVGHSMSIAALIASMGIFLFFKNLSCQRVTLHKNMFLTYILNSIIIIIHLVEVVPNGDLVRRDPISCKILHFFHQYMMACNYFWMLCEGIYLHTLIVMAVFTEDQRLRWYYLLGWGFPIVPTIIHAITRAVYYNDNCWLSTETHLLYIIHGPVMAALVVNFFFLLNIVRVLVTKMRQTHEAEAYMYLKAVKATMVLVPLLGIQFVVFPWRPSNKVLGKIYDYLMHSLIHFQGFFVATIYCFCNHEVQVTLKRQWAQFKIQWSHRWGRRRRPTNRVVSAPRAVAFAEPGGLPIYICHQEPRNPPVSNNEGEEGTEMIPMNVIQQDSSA
T3 sequence (looked up) 2: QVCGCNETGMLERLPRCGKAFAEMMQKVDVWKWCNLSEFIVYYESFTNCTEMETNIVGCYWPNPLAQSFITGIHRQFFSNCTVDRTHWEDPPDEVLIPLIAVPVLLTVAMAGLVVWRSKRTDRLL

T4: human calcitonin receptor (human, UniProt P30988 25-474)
T4 sequence (looked up): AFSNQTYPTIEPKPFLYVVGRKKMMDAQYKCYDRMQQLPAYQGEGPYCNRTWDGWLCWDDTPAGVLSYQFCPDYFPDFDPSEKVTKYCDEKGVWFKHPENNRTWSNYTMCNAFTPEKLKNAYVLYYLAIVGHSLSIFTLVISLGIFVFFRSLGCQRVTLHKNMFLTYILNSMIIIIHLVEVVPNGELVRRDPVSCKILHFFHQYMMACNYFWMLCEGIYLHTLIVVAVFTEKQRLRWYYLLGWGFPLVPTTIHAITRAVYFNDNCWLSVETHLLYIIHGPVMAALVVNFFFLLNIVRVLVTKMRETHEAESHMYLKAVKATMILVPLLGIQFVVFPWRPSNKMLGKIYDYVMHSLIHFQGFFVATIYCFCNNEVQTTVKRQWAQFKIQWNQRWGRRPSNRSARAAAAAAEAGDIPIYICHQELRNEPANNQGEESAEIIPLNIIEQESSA

T5: human calcitonin receptor (human, UniProt P30988 25-474)
T5 construct: whole, on cells; Used as membranes prepared from the transfected cells (Assay VII); also called hCTR; hCT
T5 sequence (looked up): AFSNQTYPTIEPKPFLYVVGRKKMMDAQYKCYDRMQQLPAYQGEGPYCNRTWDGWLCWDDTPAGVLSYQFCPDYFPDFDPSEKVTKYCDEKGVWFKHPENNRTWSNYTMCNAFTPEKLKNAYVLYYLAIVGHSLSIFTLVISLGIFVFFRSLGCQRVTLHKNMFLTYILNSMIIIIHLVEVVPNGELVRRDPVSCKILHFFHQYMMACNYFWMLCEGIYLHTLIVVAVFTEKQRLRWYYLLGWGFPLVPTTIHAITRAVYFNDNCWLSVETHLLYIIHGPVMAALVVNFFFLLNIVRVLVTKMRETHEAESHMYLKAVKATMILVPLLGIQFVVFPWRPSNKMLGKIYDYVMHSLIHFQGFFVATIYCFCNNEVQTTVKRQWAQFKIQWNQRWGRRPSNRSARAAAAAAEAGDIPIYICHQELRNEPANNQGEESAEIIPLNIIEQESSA

B1: N^ε1-[(4S)-4-carboxy-4-(19-carboxynonadecanoylamino)butanoyl]-[Glu14,Arg17,Pro21,Pro27,Pro34,Arg35]-h-amylin (peptide)
peptide: K([γGlu-C20 diacid])CNTATCATQRLAEFLRHSSPNFGAIPSSTNVGPRTY-NH2
modifications: disulfide 2-7; N-terminus assumed
SMILES: CC[C@H](C)[C@H](NC(=O)[C@H](C)NC(=O)CNC(=O)[C@H](Cc1ccccc1)NC(=O)[C@H](CC(N)=O)NC(=O)[C@@H]1CCCN1C(=O)[C@H](CO)NC(=O)[C@H](CO)NC(=O)[C@H](Cc1c[nH]cn1)NC(=O)[C@H](CCCNC(=N)N)NC(=O)[C@H](CC(C)C)NC(=O)[C@H](Cc1ccccc1)NC(=O)[C@H](CCC(=O)O)NC(=O)[C@H](C)NC(=O)[C@H](CC(C)C)NC(=O)[C@H](CCCNC(=N)N)NC(=O)[C@H](CCC(N)=O)NC(=O)[C@@H](NC(=O)[C@H](C)NC(=O)[C@@H]1CSSC[C@H](NC(=O)[C@@H](N)CCCCNC(=O)CC[C@H](NC(=O)CCCCCCCCCCCCCCCCCCC(=O)O)C(=O)O)C(=O)N[C@@H](CC(N)=O)C(=O)N[C@@H]([C@@H](C)O)C(=O)N[C@@H](C)C(=O)N[C@@H]([C@@H](C)O)C(=O)N1)[C@@H](C)O)C(=O)N1CCC[C@H]1C(=O)N[C@@H](CO)C(=O)N[C@@H](CO)C(=O)N[C@H](C(=O)N[C@@H](CC(N)=O)C(=O)N[C@H](C(=O)NCC(=O)N1CCC[C@H]1C(=O)N[C@@H](CCCNC(=N)N)C(=O)N[C@H](C(=O)N[C@@H](Cc1ccc(O)cc1)C(N)=O)[C@@H](C)O)C(C)C)[C@@H](C)O
notes: not restated for each compound
B2: N^α1-[(4S)-4-carboxy-4-(19-carboxynonadecanoylamino)butanoyl]-[Glu14,Arg17,Pro21,Pro25,Pro28,Pro29,Pro37]-h-amylin (peptide)
peptide: {C20 diacid-γGlu}-KCNTATCATQRLAEFLRHSSPNFGPILPPTNVGSNTP-NH2
modifications: disulfide 2-7
SMILES: CC[C@H](C)[C@H](NC(=O)[C@@H]1CCCN1C(=O)CNC(=O)[C@H](Cc1ccccc1)NC(=O)[C@H](CC(N)=O)NC(=O)[C@@H]1CCCN1C(=O)[C@H](CO)NC(=O)[C@H](CO)NC(=O)[C@H](Cc1c[nH]cn1)NC(=O)[C@H](CCCNC(=N)N)NC(=O)[C@H](CC(C)C)NC(=O)[C@H](Cc1ccccc1)NC(=O)[C@H](CCC(=O)O)NC(=O)[C@H](C)NC(=O)[C@H](CC(C)C)NC(=O)[C@H](CCCNC(=N)N)NC(=O)[C@H](CCC(N)=O)NC(=O)[C@@H](NC(=O)[C@H](C)NC(=O)[C@@H]1CSSC[C@H](NC(=O)[C@H](CCCCN)NC(=O)CC[C@H](NC(=O)CCCCCCCCCCCCCCCCCCC(=O)O)C(=O)O)C(=O)N[C@@H](CC(N)=O)C(=O)N[C@@H]([C@@H](C)O)C(=O)N[C@@H](C)C(=O)N[C@@H]([C@@H](C)O)C(=O)N1)[C@@H](C)O)C(=O)N[C@@H](CC(C)C)C(=O)N1CCC[C@H]1C(=O)N1CCC[C@H]1C(=O)N[C@H](C(=O)N[C@@H](CC(N)=O)C(=O)N[C@H](C(=O)NCC(=O)N[C@@H](CO)C(=O)N[C@@H](CC(N)=O)C(=O)N[C@H](C(=O)N1CCC[C@H]1C(N)=O)[C@@H](C)O)C(C)C)[C@@H](C)O
notes: also called compound 4

target: T1, rat calcitonin receptor; experiment: ratio of IC50 on rat calcitonin receptor (Assay VIII) to IC50 on rat amylin receptor (Assay VI)

Ratio rCT/rAmylin binding | Binder
45.5 | B1

target: T1, rat calcitonin receptor; experiment: SPA competition binding, displacement of 125I-calcitonin from membranes of BHK tk'ts 13 cells transfected with rat calcitonin receptor (Assay VIII)

IC50 [nM] | Binder
15.4 | B1

target: T2, human amylin 3(a) receptor (human …); experiment: cell-based or functional assay

Ratio hCT/hAmylin funct. | Binder
1.2 | B2

target: T3, rat amylin receptor (rat calcitonin …); experiment: SPA competition binding, displacement of 125I-rat amylin from membranes of BHK tk'ts 13 cells transfected with rat calcitonin receptor + rat RAMP 3 (Assay VI)

IC50 [nM] | Binder
0.339 | B1

target: T4, human calcitonin receptor; experiment: cell-based or functional assay

Ratio hCT/hAmylin funct. | Binder
19.5 | K([AEEA-AEEA-γGlu-C20 diacid])CNTATCATQRLANFLRHSSPNFGAIPSSTNVGPNTY-NH2 (disulfide 2-7 (inferred), also called compound 98)
15.8 | K([γGlu-γGlu-C20 diacid])CNTATCATQRLAEFLRHSSPNFGAIPSSTNVGHETY-NH2 (disulfide 2-7 (inferred))
33 | K([AEEA-AEEA-γGlu-C20 diacid])CNTATCATQRLANFLRHSSPNFGAIPSSTNVGHNTY-NH2 (disulfide 2-7 (inferred), also called compound 97)
21 | K([AEEA-AEEA-γGlu-C20 diacid])CNTATCATQRLANFLRHSSPNFGAIPSSTPVGSNTY-NH2 (disulfide 2-7 (inferred), also called compound 96)
44.9 | K([γGlu-γGlu-C20 diacid])CNTATCATQRLADFLRHSSPNFGAIPSSTNVGPRTY-NH2 (disulfide 2-7 (inferred), also called compound 130)
26 | K([γGlu-γGlu-C20 diacid])CNTATCATQRLANFLRHSSPNFGAIPSSTPVGPRTY-NH2 (disulfide 2-7 (inferred))
16.4 | K([γGlu-γGlu-C20 diacid])CNTATCATQRLAEFLRHSSPNFGAIPSSTNVGPHTY-NH2 (disulfide 2-7 (inferred))

target: T5, human calcitonin receptor; experiment: ratio of IC50 on human calcitonin receptor (Assay VII) to IC50 on human amylin receptor (Assay V)
In short: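 Competition binding by SPA uses membrane preparations (35 ng/μL final) in pH 7.4 Hepes buffer with 1 mM CaCl2 and 5 mM MgCl₂. Incubation lasts 120 min at 25° C, and IC₅₀ comes from one-site fitting.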

Ratio hCT/hAmylin binding | Binder
38.6 | B1
